Assay results taken from paper PMC4450660, “Biochemical and Structural Characterization of Enolase from Chloroflexus aurantiacus: Evidence for a Thermophilic Origin” (Frontiers in Bioengineering and Biotechnology, 2015).

Target: the molecule itself
Assay: SEC; native molecular weight of purified EnoCa (~92-96 kDa against a ~46 kDa subunit on SDS gel); gel filtration on Sephacryl S-300 (2.5 x 100 cm), 1 ml/min, is a step of the purification; the data are in Figures S1-S3

B1: enolase-1 from Chloroflexus aurantiacus (enzyme, Chloroflexus aurantiacus strain J.10.fl., UniProt A9WCM4 1-426, looked up)
chain: MSTLIEAIVAREVLDSRGNPTIEVDVRLESGDVGRAIVPSGASTGAHEALELRDGDKSRYNGKGVLKAVQAVNEDIAEALIGFDAADQIALDQELIALDGTPNKSKLGANAILGVSLAAAKAAAAAFGLPLYRYLGGVYAHVLPVPMMNIMNGGQHATNSTDFQEFMIMPVGAESFREGLRWGAEIYHMLKKVIHDRGFSTTVGDEGGFAPSLPTNDAPLQLIMEAIEKAGYRPGEQIVIALDPATTEIFEDGKYHLKREGRSLSSAEMVDYWVDLVNRYPIISLEDGLAEDDWEGWALLRAKLGDRVQLVGDDFLVTNVQRLQRAIEAKAANSILIKLNQIGSLTETLSAIQLAQRSGWTAVVSHRSGESEDVTIADLVVATNAGQIKTGAPARTDRIAKYNQLLRIEEELGSAARYAGRSAFKV
notes: enolase-1 (2-phospho-D-glycerate hydrolyase, EC 4.2.1.11) of Chloroflexus aurantiacus strain J.10.fl., endogenous protein; subunit ~46 kDa by SDS-PAGE; Native protein purified from the organism, no tags; also called EnoCa; EnoCa-1
- stoichiometry N: 2
